Consider one molecule from article PMC4108507 (Journal of immunology (Baltimore, Md. : 1950), 2014).

The experiment has as its target HA-DHX15, full-length recombinant protein (murine, UniProt O35286 1-795). Kind of experiment: pull-down.

HA-DHX15, full-length recombinant protein, sequence (O35286 whole entry): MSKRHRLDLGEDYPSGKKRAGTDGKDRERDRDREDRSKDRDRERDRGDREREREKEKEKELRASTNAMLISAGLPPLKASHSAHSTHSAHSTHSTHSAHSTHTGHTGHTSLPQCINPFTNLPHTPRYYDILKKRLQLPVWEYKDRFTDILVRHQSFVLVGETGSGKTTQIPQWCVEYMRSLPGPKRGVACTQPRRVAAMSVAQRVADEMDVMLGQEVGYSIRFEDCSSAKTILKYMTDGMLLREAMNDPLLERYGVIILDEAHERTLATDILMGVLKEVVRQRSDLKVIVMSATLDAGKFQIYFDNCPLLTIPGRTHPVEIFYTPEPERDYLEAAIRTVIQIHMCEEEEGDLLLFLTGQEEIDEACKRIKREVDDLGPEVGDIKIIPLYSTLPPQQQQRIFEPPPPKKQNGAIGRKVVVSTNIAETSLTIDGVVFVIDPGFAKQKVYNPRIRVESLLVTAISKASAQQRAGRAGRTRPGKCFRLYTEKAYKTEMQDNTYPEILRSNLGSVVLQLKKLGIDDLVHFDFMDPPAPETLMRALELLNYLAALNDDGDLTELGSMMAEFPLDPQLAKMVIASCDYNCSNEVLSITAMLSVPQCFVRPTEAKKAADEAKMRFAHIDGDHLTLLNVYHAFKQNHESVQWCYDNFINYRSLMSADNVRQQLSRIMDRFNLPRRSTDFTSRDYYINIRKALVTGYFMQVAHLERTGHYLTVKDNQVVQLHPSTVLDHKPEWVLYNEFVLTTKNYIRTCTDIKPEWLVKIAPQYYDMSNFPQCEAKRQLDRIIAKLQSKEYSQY

B1: Myc-MAVS, full-length recombinant protein (natural protein, murine, UniProt Q8VCF0 1-503, looked up)
chain: MTFAEDKTYKYIRDNHSKFCCVDVLEILPYLSCLTASDQDRLRASYRQIGNRDTLWGLFNNLQRRPGWVEVFIRALQICELPGLADQVTRVYQSYLPPGTSLRSLEPLQLPDFPAAVSGPSAFAPGHNIPDHGLRETPSCPKPVQDTQPPESPVENSEQLLQTNSGAVARMSGGSLIPSPNQQALSPQPSREHQEQEPELGGAHAANVASVPIATYGPVSPTVSFQPLPRTALRTNLLSGVTVSALSADTSLSSSSTGSAFAKGAGDQAKAATCFSTTLTNSVTTSSVPSPRLVPVKTMSSKLPLSSKSTAAMTSTVLTNTAPSKLPSNSVYAGTVPSRVPASVAKAPANTIPPERNSKQAKETPEGPATKVTTGGNQTGPNSSIRSLHSGPEMSKPGVLVSQLDEPFSACSVDLAISPSSSLVSEPNHGPEENEYSSFRIQVDESPSADLLGSPEPLATQQPQEEEEHCASSMPWAKWLGATSALLAVFLAVMLYRSRRLAQ
For the molecule B1, the binding result was “binds”.
